Measurements from patent US20050153377A1 (ORIENTAL YEAST CO., LTD., priority 1999, published 2005).

Columns and labels:
CRP = molecular target: T1, CRP (Homo sapiens, UniProt P02741); assay: CRP activity to bind to immobilized PC-BSA, PC-antibody method (C); type: binding; details: Eu3+-labeled anti-CRP antibody, FIG. 6
T1 construct: purchased Oriental Yeast Co., Ltd. (Japan); host or cells: Escherichia coli
T1 sequence (P02741 19-224): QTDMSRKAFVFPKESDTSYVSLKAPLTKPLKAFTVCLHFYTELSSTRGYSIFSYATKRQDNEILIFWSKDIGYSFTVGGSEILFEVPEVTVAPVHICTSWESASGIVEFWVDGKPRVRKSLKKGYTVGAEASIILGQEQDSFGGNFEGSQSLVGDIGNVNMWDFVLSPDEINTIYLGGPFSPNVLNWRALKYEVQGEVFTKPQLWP
Method: Because it was difficult to immobilize PC-BSA without modification of the microtiter plate, PC-BSA was immobilized on the wells of a microtiter plate by using the PVLA method [Suzuki, N., et al., (1997) Anal. Biochem. 247, 4-12-416]. PVLA (2 mg) was suspended in 1 ml of water by ultrasonication; the resulting PVLA suspension of 40 μl was added to each well, for overnight incubation at 4° C. 1 mM NaIO4 solution was added in 50 μl-portions to each well, and the plate was incubated in darkness at ambient temperature for one hour. After the plate was washed, the PC-BSA solution (100 ng protein in 40 μl of water) was added to each well, followed by mixing with 5 μl of 2% (v/v) borane-pyridine complex, for incubation at 37° C. for 2 hours. The wells were blocked through incubation with 1M glycylglycine (40 μl) at 37° C. for 4 hours, and then followed by incubation with 200 μl of TBS containing 2% (w/v) BSA at 4° C. overnight. After the added solutions were removed at the individual stages of the following method, the wells were washed six times with 200 μl of TBS.
So as to immobilize PC58- or PC7-BSA solution (40 μl containing […] and PC of about 120 pmol or 15 pmol) in water, the solution was left to stand in the PVLA-coated well. After the wells were coated with PC-BSA and blocked with BSA, they were then washed six times with TBS (200 μl). […]

[1] = molecular target: PC58-BSA (conjugate with 58 phosphorylcholine molecules on average bound per one bovine serum albumin molecule) (bovine) (UniProt P02769); assay: quantitative precipitation at saturation, 20 µg PC58-BSA with 50 µg CRP
Chain of PC58-BSA (conjugate with 58 phosphorylcholine molecules on average bound per one bovine serum albumin molecule) (bovine) (P02769 25-607 limits assumed, form in doubt): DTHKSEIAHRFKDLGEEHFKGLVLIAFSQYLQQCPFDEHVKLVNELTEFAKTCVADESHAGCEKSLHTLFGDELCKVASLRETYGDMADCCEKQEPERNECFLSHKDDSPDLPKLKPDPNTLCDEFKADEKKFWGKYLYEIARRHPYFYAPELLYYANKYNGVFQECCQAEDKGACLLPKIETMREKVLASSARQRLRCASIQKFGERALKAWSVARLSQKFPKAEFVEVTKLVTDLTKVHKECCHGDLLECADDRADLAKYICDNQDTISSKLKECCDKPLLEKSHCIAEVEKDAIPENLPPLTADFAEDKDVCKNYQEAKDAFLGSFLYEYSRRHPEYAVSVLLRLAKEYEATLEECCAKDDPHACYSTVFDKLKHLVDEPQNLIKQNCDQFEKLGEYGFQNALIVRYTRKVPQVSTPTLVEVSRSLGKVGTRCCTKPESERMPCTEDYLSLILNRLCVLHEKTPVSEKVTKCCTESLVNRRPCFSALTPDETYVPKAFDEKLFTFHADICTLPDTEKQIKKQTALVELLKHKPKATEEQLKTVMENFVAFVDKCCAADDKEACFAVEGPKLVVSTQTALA

## PC7-BSA: PC conjugate of bovine serum albumin (BSA) produced by the previously reported method
CRP
  anti-CRP antibody (IgG) bound per PC-BSA-coated well: 2.2 fmol per well

## PC58-BSA: conjugate where 58 PC molecules on average are bound per one BSA molecule
CRP
  anti-CRP antibody (IgG) bound per PC-BSA-coated well: 5.6 fmol per well

B1: Recombinant human C-reactive protein (rhCRP) expressed in Escherichia coli (protein, UniProt P02741 19-224, looked up)
chain: QTDMSRKAFVFPKESDTSYVSLKAPLTKPLKAFTVCLHFYTELSSTRGYSIFSYATKRQDNEILIFWSKDIGYSFTVGGSEILFEVPEVTVAPVHICTSWESASGIVEFWVDGKPRVRKSLKKGYTVGAEASIILGQEQDSFGGNFEGSQSLVGDIGNVNMWDFVLSPDEINTIYLGGPFSPNVLNWRALKYEVQGEVFTKPQLWP
[1]
  amount of CRP in the precipitate: 0.37 nmol
  amount of PC58-BSA in the precipitate: 0.17 nmol
  ratio PC58-BSA:CRP in the precipitate (mol CRP (pentamer) per mol PC58-BSA): 2.2
